According to patent US20100260748A1 (published 2010):
Numbering of substitutions follows the chain as printed. In names and notes the source's numbering stands.

T1: human FcRH5 expressed on stably transfected cells (BJAB.huFcRH5, OPM2.huFcRH5) (human, UniProt Q96RD9 16-977)
T1 construct: also called OPM2-FcRH5; BJAB-FcRH5
T1 chain: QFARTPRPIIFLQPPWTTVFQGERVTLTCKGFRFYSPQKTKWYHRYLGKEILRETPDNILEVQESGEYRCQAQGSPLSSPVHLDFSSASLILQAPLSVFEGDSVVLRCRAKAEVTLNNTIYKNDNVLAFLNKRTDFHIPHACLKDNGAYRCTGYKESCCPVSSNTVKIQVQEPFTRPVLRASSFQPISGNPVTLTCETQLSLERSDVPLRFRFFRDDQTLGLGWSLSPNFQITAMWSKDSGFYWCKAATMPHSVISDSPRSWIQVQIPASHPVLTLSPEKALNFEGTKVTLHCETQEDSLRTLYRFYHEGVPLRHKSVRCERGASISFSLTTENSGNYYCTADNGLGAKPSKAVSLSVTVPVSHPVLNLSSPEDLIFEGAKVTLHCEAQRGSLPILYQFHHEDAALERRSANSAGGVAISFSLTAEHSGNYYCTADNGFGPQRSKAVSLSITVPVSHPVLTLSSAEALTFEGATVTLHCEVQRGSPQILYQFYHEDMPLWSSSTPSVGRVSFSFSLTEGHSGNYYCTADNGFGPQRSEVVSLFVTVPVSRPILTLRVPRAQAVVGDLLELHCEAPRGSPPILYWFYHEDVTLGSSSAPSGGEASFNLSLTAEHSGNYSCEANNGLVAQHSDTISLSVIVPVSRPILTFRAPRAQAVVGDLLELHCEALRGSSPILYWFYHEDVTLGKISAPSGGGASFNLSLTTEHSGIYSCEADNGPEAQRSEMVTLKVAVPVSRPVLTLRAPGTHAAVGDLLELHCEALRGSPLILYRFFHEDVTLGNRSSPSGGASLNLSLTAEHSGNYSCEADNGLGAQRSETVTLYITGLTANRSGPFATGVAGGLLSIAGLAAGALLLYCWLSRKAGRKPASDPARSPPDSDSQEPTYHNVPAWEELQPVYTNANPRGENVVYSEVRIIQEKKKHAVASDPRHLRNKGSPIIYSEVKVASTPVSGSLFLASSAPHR

T2: cynomolgus FcRH5 expressed on stably transfected SVT2 cells (cynomolgus monkey)
T2 construct: also called cyno FcRH5; cynoFcRH5
T2 chain: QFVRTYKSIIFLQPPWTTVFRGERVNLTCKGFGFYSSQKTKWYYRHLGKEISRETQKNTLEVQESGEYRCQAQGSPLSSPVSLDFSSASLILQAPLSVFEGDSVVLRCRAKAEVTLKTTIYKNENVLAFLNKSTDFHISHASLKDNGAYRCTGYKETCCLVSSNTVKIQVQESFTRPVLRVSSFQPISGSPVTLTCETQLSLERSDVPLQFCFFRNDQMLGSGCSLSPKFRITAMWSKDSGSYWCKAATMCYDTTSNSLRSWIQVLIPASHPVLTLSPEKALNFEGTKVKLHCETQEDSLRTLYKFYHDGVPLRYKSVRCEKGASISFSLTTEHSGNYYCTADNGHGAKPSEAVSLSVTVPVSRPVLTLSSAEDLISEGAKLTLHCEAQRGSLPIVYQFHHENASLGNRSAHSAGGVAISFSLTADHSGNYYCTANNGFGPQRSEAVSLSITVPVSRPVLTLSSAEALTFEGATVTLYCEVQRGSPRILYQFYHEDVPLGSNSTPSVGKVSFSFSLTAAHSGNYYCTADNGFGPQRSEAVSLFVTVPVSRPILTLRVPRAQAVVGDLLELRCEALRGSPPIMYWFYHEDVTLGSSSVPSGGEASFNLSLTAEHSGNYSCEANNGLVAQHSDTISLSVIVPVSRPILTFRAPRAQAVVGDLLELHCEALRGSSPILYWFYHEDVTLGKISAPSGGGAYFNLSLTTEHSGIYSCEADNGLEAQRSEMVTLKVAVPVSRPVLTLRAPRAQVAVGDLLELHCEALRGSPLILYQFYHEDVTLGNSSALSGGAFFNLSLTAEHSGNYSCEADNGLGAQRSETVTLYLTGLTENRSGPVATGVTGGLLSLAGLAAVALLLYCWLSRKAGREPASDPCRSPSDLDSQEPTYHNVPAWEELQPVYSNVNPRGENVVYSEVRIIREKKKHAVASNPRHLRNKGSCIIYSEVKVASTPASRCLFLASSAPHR

B1: cysteine engineered chimeric anti-FcRH5 10A8, heavy chain A118C (thio-ch10A8.HC) (antibody, human IgG1, kappa, name in EU numbering)
light: DIVMTQSHKFMSTSVRDRVSITCKASQDVSTAVAWYQQKPGQSPKLLIYSASYRYTGVPDRFTGSGSGTDFTFTISSVQAEDLAVYYCQQHFSSPRTFGGGTKVEIKRTVAAPSVFIFPPSDEQLKSGTASVVCLLNNFYPREAKVQWKVDNALQSGNSQESVTEQDSKDSTYSLSSTLTLSKADYEKHKVYACEVTHQGLSSPVTKSFNRGEC
heavy: not shown
notes: also called Thio-ch10A8-HC(A118C)
B2: humanized anti-FcRH5 antibody 10A8 version 1 (hu10A8 v1) (antibody, human IgG1, V domains shown)
VL: DIQMTQSPSSLSASVGDRVTITCKASQDVSTAVAWYQQKPGKAPKLLIYSASYRYTGVPSRFSGSGSGTDFTLTISSLQPEDFATYYCQQHFSSPRTFGQGTKVEIKR
VH: EVQLVESGGGLVQPGGSLRLSCAASGFTFSSYAVSWVRQAPGKGLEWVATISSGGSLTFYLDSVRGRFTISRDNSKNTLYLQMNSLRAEDTAVYYCARPIPDYYALDYWGQGTLVTVSS
notes: Full-length human IgG1 with human kappa constant domain; also called 10A8-graft; hu10A8 graft
B3: murine anti-FcRH5 (10A8) monoclonal antibody (antibody, V domains shown)
VL: DIVMTQSHKFMSTSVRDRVSITCKASQDVSTAVAWYQQKPGQSPKLLIYSASYRYTGVPDRFTGSGSGTDFTFTISSVQAEDLAVYYCQQHFSSPRTFGGGTKVEIKR
VH: EVQLVESGGGLVKPGGSLKISCAASGFTFSSYAVSWVRQTPEKRLEWVATISSGGSLTFYLDSVRGRFTISRDNAKNTLYLQMSSLRSEDTAMYYCARPIPDYYALDYWGQGTSVTVSS
notes: Murine hybridoma IgG; also called 10A8.1.1; mu10A8
B4: Thio-ch10A8-HC(A118C)-MC-vc-PAB-MMAE (antibody, human IgG1, kappa, name in EU numbering)
light: B1 light
heavy: not shown
modifications: MC-vc-PAB-MMAE on the engineered Cys 118 (EU numbering)
notes: Antibody-drug conjugate of thio-ch10A8.HC
B5: ch10A8-SPDB-DM4 (antibody, human IgG1, kappa)
light: B1 light
heavy: not shown
modifications: DM4 linked through the e-amino group of lysine using the SPDB linker (sites not given)
B6: thio-hu10A8-HC(A118C)-MC-vc-PAB-MMAE (antibody, human IgG1, kappa)
heavy: not shown
light: DIQMTQSPSSLSASVGDRVTITCKASQDVSTAVAWYQQKPGKAPKLLIYSASYRYTGVPSRFSGSGSGTDFTLTISSLQPEDFATYYCQQHFSSPRTFGQGTKVEIKRTVAAPSVFIFPPSDEQLKSGTASVVCLLNNFYPREAKVQWKVDNALQSGNSQESVTEQDSKDSTYSLSSTLTLSKADYEKHKVYACEVTHQGLSSPVTKSFNRGEC
modifications: MC-vc-PAB-MMAE on the engineered Cys 118 (EU numbering)
notes: Antibody-drug conjugate (thioMab drug conjugate); also called thio-HC(A118C)-hu-anti-FcRH5 (10A8)-MC-vc-PAB-MMAE; Thio-HC(A118C)-hu-anti-FcRH5 (10A8)-vc-E
B7: thio-hu10A8-LC(V205C)-MC-vc-PAB-MMAE (antibody, human IgG1, kappa)
heavy: not shown
light: B6 light with V205C
modifications: MC-vc-PAB-MMAE on the engineered Cys 205 (Kabat numbering)
notes: Antibody-drug conjugate (thioMab drug conjugate); also called Thio-LC(L205C)-hu-anti-FcRH5 (10A8)-vc-E
B8: chimeric anti-human FcRH5 antibody 10A8 (ch10A8) (antibody, human IgG1, kappa)
light: B1 light
heavy: not shown
notes: Murine 10A8 variable domains with human kappa and human IgG1 constant domains; also called chMAFcRH5 (10A8); chFcRH5 (10A8)
B9: thio-hu10A8 v1-HC(A118C) (antibody, human IgG1, kappa)
heavy: not shown
light: B6 light
notes: Cysteine engineered humanized IgG1 (thioMab), unconjugated; also called thio.hu10A8.HC; Thio-hu10A8-HC(A118C)
B10: thio-hu10A8 v1-LC(V205C) (antibody, human IgG1, kappa)
heavy: not shown
light: B6 light with V205C
notes: Cysteine engineered humanized IgG1 (thioMab), unconjugated; also called thio.hu10A8.LC; thio-hu10A8-LC(V205C)

Biological target: T1, human FcRH5 expressed on stably …
Experiment: Scatchard analysis, 0.5 nM 125I-labelled antibody competed with the same unlabelled antibody (50 to 0.02 nM), OPM2.huFcRH5 cells, 4 h at 4 C
Protocol: (§1) To further determine binding of the FcRH5 murine antibodies and IgG clones, binding of iodinated IgG variants to OPM2 cells expressing human FcRH5 and SVT2 cells expressing cynomologous FcRH5, Scatchard analysis was performed.
(§2) For Scatchard analysis, 0.5 nM I¹²⁵ labeled murine or IgG clone anti-FcRH5 was competed against unlabeled murine or IgG clone anti-FcRH5, respectively, ranging from 50 to 0.02 nM (12 step 1:2 serial dilution) in the presence of a transfected OPM2 line stably expressing human-FcRH5 and a transfected SVT2 line stably expressing cynomologous-FcRH5. After a four hour incubation at 4° C., cells were washed and cell pellet counts were read by a gamma counter (1470 WIZARD Automatic Gamma Counter; Perkin Elmer, Walthem, Mass.). All points were done in triplicate and counted for 10 minutes. The average CPM was used for Kd calculation using the New Ligand (Genentech, South San Francisco, Calif.) program.

| Binder | Kd [nM] |
| --- | --- |
| B1 | 0.85 |
| B2 | 1.44 |

Biological target: T1, human FcRH5 expressed on stably …
Experiment: Scatchard analysis, 0.5 nM 125I-labelled antibody competed with the same unlabelled antibody (50 to 0.02 nM), BJAB.huFcRH5 cells, 4 h at 4 C

| Binder | Kd [nM] |
| --- | --- |
| B3 | 0.44 |

Biological target: T1, human FcRH5 expressed on stably …
Experiment: FACS (0.1, 1.0, 10 ug/mL ADC) on OPM2 cells stably expressing human FcRH5
Protocol: For FACS analysis of FcRH5 antibody drug conjugates (see Example 2), FcRH5 ADCs were added in increasing concentrations (0.1, 1.0, and 10 μg/mL) to 10⁶ OPM2 cells transfected with and stably expressing human FcRH5 or SVT2 cells transfected with and stably expressing cynomolgus FcRH5 in a 100 μL reaction volume. Samples were then incubated 1 hr at […] in FACS buffer (PBS, 0.5% BSA, 0.1% sodium azide) to inhibit interalization. After washing, cells were resuspended in FACS buffer and incubated 30 min at room temperature with 20 μL mouse anti-human IgG conjugated to phycoerythrin (Ms anti-Human-PE) secondary antibody in a 100 μL reaction volume. After washing, cells were fixed in 200 μL 2% paraformaldehyde/PBS and flow cytometery performed. The same procedure was used for HuIgG, however, at only the highest concentration (10 μg/mL). The HuIgG was used as an isotype control to set baseline PMT per cell line. Flow cytomery was performed on a BD FACSCalibur® and geometric mean fluorescence intensity was recorded for each sample. Recorded data was analyzed using FlowJo v8.4.5 software (see FIGS. 20-25).

| Binder | binding result |
| --- | --- |
| B4 | binds |
| B5 | binds |
| B6 | binds |
| B7 | binds |

Biological target: T2, cynomolgus FcRH5 expressed on stably …
Experiment: Scatchard analysis, 0.5 nM 125I-labelled antibody competed with the same unlabelled antibody (50 to 0.02 nM), SVT2.cyFcRH5 cells, 4 h at 4 C
Protocol: as §1, §2

| Binder | Kd [nM] |
| --- | --- |
| B8 | 0.98 |
| B1 | 1.57 |
| B3 | 2.74 |
| B2 | 3.04 |
| B9 | 3.12 |
| B10 | 2.63 |
